Measured values: patent US8039438B2, “Synthetic peptides that cause F-actin bundling and block actin depolymerization” (The Regents of the University of California, priority 2003, dated 2011)
Entries after “also recorded” stand apart in the source; their conditions may differ.

Assays:
rabbit muscle actin = biological target: T1, rabbit muscle actin (Oryctolagus cuniculus, UniProt P68135); experiment: In vitro bundling of actin by peptides (co-polymerization, differential centrifugation, SDS gel); assay type: biochemical; details: for In vitro actin bundling activity: Tables 2 and 3, peptide co-polymerized with actin in vitro; for activity designation of the peptide in the sequence list (active / less active / inactive): summary sequence table; for bundled actin upon inducing polymerization: polymerization induced (PI +)
T1 construct: Purified rabbit muscle actin (Cytoskeleton Inc., Denver, Mo.); purchased Cytoskeleton Inc; host or cells: rabbit muscle
Description: The peptides in Table 2 were added to polymerised actin in vitro at different molar ratios. Centrifugation was used to separate fractions containing F-actin, G-actin and bundled actin, which were then run out on […]. Purified rabbit muscle actin (Cytoskeleton Inc., Denver, Mo.) was depolymerized in Low Salt Buffer [LSB; 5 mM Tris-HCl, pH 8.0, 0.2 mM CaCl2, 0.2 mM ATP, 0.5 mM DTT, mM sucrose) for 1 h on ice and denucleated by centrifugation for 1 h at 100,000×g, 4° C. 13 μM monomeric actin was polymerized in vitro by addition of 1/50 vol. […] The samples were centrifuged for 15 min at 10,000×g at room temperature to pellet “bundled filaments”. The resulting supernatant was centrifuged for 1 h at 100,000×g at room temperature to separate F-actin filaments […]. The fractions were boiled in SDS-sample buffer and analyzed on a 10% SDS-Polyacrylamide gel stained with Coomassie.

[1] = system: Embryos from Xenopus laevis; experiment: Actin-dependent cleavage in embryos injected with peptide; assay type: in vivo; details: 0.6 mg/mL final concentration in egg; for effect on cell division of embryos: injected, fixed at 8-cell stage
From the text: Referring now to photographs of FIG. 3 the peptides have a severely abnormal effect on the embryonic development of cells. […] The embryos resemble the uninjected normal embryos of FIG. 3A
The resulting blastomeres were unable to regain function and were severely abnormal showing abortive cleavage furrows.
However, in the embryos injected with the active peptide (FIG. 3F), filamentous actin is seen in the abortive cleavage furrows.

[2] = system: dextran-labeled electroporated cells; experiment: Change in number of dextran-labeled cells after electroporation with peptide; assay type: cell-based; details: dextran-labeled cells counted before and after 18 hrs incubation
Description: Electroporated cells were treated with fluorescent dextran plus peptide so those cells receiving the peptide could be identified. Typically a very small number of cells successfully incorporate substance during electroporation, making it difficult to identify those receiving peptide. Typically one sees 10-20% incorporation. But, there is good evidence showing that if a cell incorporates one component in buffer, it will incorporate all components. Thus, dextran can be used to identify those cells receiving peptide. After electroporation of cells with fluorescent dextran and the active peptide SEQ ID NO: 12, the dextran-labeled cells were initially counted and then incubated for 18 hrs. After incubation overnight, the dextran-labeled cells were once again counted. The following Tables 4 and 5 show the average change in dextran-labeled cells after the cells are electroporated and the peptide has invaded the cell body. The cell numbers of the SS12 treated peptide seemed to fluctuate after incubation with various concentrations of the SS12 peptide.

MDA 231 cells = experiment: Actin reorganization in MDA 231 cells electroporated with peptide, rhodamine-phalloidin stained; assay type: cell-based, human; details: MDA 231 cells electroporated with peptide
Description: Referring now to FIG. 2, it can be shown that treatment with an active peptide results in actin organization in human mammary epithelial tumor cells. MDA 231 cells were electroporated with SS1 (panel A) or SS12 (panel B), fixed, and rhodamine-phalloidin stained. Control epithelial tumor cells were treated with SS1 (SEQ ID NO: 9) resulting in no effect on actin-filled lamellipodia (or ruffling) characteristic of crawling cells.
MDA 231 cells are a particularly aggressive tumor cell line crawling and moving from between tissues.

[3] = system: actin comet tails in Xenopus egg extracts; experiment: Actin comet-tail formation in cytoplasmic extracts; assay type: biochemical, Xenopus laevis; details: for effect on actin comet tails: FIGS. 4C, 4D, 4F, concentration not given
Description: In FIGS. 4A and 4B, in vitro polymerized actin forms comet tail from rhodamine-labeled actin added to Xenopus laevis egg cytoplasmic extract. This was set up according to the protocol in Taunton et al., J Cell Biol. 2000 Feb. 7; 148(3):519-30.
Crude Xenopus egg extract was prepared as described except that cytochalasin D was omitted (Murray and Kirschner, Nature. 1989 May 25; 339(6222):275-80). Cytosol and a heavy membrane fraction were prepared by centrifugation of the crude extract (2 h, 300.000 g max; BECKMAN SW-50 rotor). The viscous glycogen pellet beneath the membrane layer was discarded. Cytosol was further clarified by spinning for 15 min at 541,000 g max (BECKMAN TLA 100.3 rotor). Crude membranes (diluted with one volume of 2 M sucrose) and cytosol were snap frozen in separate aliquots for storage at −80° C. unless otherwise indicated. Clarified cytosol contained a small population of vesicles, but motility assays were far more robust (more comet tails over a longer time period) when cytosol was supplemented with the heavy membrane fraction.
For the standard assay, crude membranes in 1 M sucrose (20-μl aliquot, derived from ˜80 μl crude extract) were washed and resuspended in 14 μl buffer A (50 mM NaCl, 5 mM MgCl2, and 50 mM tris [pH 7.5]). To the membrane suspension were added 35 μl cytosol (derived from ˜80 μl crude extract), 0.3 μl rhodamine-labeled actin (prepared according to Kellogg et al., Development. 1988 August; 103(4):675-86), 3 μl PMA (20 μM stock in 10% DMSO), and 20 μl buffer A at 4° C. 20-μl samples were then warmed to room temperature. After 30-40 min, 2-μl aliquots were viewed with a Nikon E800 microscope to yield the photomicrographs of FIG. 4. Images were acquired with a Princeton Instruments cooled CCD camera (standard rhodamine filter set, Princeton Instruments, Trenton, N.J.) and analyzed with WINVIEW (Visitron System, Puchheim, Germany) or METAMORPH software (Princeton Instruments, Trenton, N.J.). Pixels having an intensity over a threshold value (set to a value greater than the background fluorescence in regions devoid of comet tails) were summed over 10 random fields to quantitate relative actin assembly.
Cytosol was supplemented with a crude membrane fraction, rhodamine-actin, 1 μM PMA and peptide SS2 or SS12 (1 μM). After incubating at room temperature for 20 min, samples were viewed by fluorescence. Actin comet tails formed in Xenopus cytoplasmic extracts where no SS2 or SS12 peptides were added as shown by the photographs A, B and E of FIG. 4.

[4] = biological target: T2, rabbit muscle aldolase with actin (Oryctolagus cuniculus, UniProt P68135); experiment: Aldolase co-precipitation with polymerized actin; assay type: biochemical; details: 1 nmol aldolase, 100 nmol peptide
T2 construct: presence (lanes 4-6) of rabbit muscle actin (2 nmol); purchased Sigma (aldolase); host or cells: rabbit muscle
From the text: Referring now to FIG. 7, since the SS2 sequence is specific to SuSy protein (with SS2 having some similarity to actin), we tested its effect on the well-known interaction of rabbit muscle aldolase with actin (Winter et al. 1998, Rabbit muscle aldolase was purchased from Sigma). Phalloidin could potentially interfere with the peptides of the invention since both drugs affect actin.
Addition of SS2 peptide had no effect on aldolase precipitation in the absence of actin (FIG. 7A), but increased the amount of aldolase co-precipitating with polymerized actin (FIG. 7B). Although binding of aldolase to actin is not sucrose dependent as shown for SuSy, the presence of Sucrose in the polymerization assay caused an additional increase in the amount of aldolase bound to polymerized actin as shown by lane 6 in FIG. 7B. Rabbit muscle aldolase (1 nmol) was incubated in the absence (lanes 1-3) or presence (lanes 4-6) of rabbit muscle actin (2 nmol).

[5] = 1:1 molar ratio peptide:actin, FIGS. 6C, 6D

| Sequence | In vitro actin bundling activity (rabbit muscle actin) | activity designation of the peptide in the sequence list (active / less active / inactive) (rabbit muscle actin) | bundling of actin during in vitro polymerization (rabbit muscle actin) | bundled actin upon inducing polymerization (rabbit muscle actin; [5]) | further results |
| --- | --- | --- | --- | --- | --- |
| GPTLKRTASTAFMNTTSKK (NR11 inactive synthetic peptide) [reference compound] | inactive | NR11 inactive |  |  |  |
| GDRVLSRLHSVRERIGK (synthetic SS1 inactive control peptide) [reference compound] |  | SS1 inactive |  |  | effect on cell division of embryos [1]: no effect; % change in cell number [2]: +45.0%; % change in cell number ([2]; peptide concentration 0.2 μM): +1.2%; % change in cell number ([2]; peptide concentration 1.0 μM): +17.4%; % change in cell number ([2]; peptide concentration 10.0 μM): +43.8%; effect on actin-filled lamellipodia (MDA 231 cells): no effect |
| GIVRKWISRFEVWPYLKK (SS2 active peptide based on Zea mays SuSy 377- 392) | active | SS2 active | most active | the bulk of the actin is bundled | effect on actin comet tails [3]: complete disruption of the comet tails; actin comet tail formation ([3]; peptide 1 μM, 1 μM PMA, 20 min at room temperature): little or no actin comet tail formation; lasting effect on cell division ([1]; divisions typically an hour apart): at least 3 divisions; effect on cell division of embryos [1]: block several cell divisions; bundling of already polymerized (filamentous) actin (rabbit muscle actin; 2 nmol actin polymerized 30 min, then 0, 1, 2, 4 and 20 nmol peptide for 30 min, FIG. 6B): Only the highest concentration of SS2 caused bundling; bundled actin with peptide alone (rabbit muscle actin; 1:1 molar ratio peptide:actin, polymerization not induced, FIGS. 6C, 6D): half of the actin bundled; effect of phalloidin on bundling activity of the peptide (rabbit muscle actin; FIG. 7): not affected; distribution of actin between bundled and F-actin fraction (rabbit muscle actin; added to unpolymerized actin, molar ratio peptide to actin 0.5, FIG. 6A): half-bundled and half-F-actin; amount of aldolase co-precipitating with polymerized actin ([4]; 2 nmol actin, FIG. 7B): increased; aldolase precipitation in the absence of actin ([4]; FIG. 7A): no effect |
| WISRFEVW (Small block of SS12 sequence required for less active synthetic peptide) [SMIN] | less active | SMIN less active |  |  |  |
| GIVRKAISRFEVAPYL (SS15 less active synthetic peptide) | less active | SS15 less active |  | did not cause bundled actin | form of polymerised actin (rabbit muscle actin; molar ratio peptide:actin 10:1 and 100:1, added to unpolymerized actin, FIG. 6E): predominantly in the bundled form |
| GRMRRIATVEMMKK (SP26 inactive synthetic peptide) [reference compound] | inactive | SP26 inactive | not able to bundle actin filaments in vitro |  |  |
| ENGIVRKWISRFEVW (synthetic peptide derived from Zea mays SuSy2 protein 357-389) [SEQ ID NO: 3, Zea mays SuSy2 375-389] |  |  |  |  | effect on actin comet tails [3]: complete disruption of the comet tails |
| ILRVPFRTENGIVRK (SS11 inactive synthetic peptide) | inactive | SS11 inactive | not effective in bundling; also recorded: did not cause actin to bundle | do not produce bundled actin |  |
| RRISSVEDKK (SP3 inactive synthetic peptide) [reference compound] | inactive | SP3 inactive |  | do not produce bundled actin |  |
